The nature of the data set: protein stability index of a GFP-peptide fusion (GPS, HEK-293T) (PSI 1-6); higher = more stable. Particulars: c terminus: native.
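Further: lentivirally expressed fusion library, cells FACS-sorted into six equal-sized GFP/DsRed ratio bins, PSI computed from sequencing read fractions per bin weighted by bin number.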

B1: PSMB5 addI (peptide)
chain: DGWIRVSSDNVADLHEKYSGSTPI
Regarding B1, the protein stability index (parent: NP_002788.1) came to 4.5.

B2: POLD2 addI (peptide)
chain: CQPISFSGFGAEDDDLGGLGLGPI
Take B2: the protein stability index (parent: NP_006221.1) came to 2.66.

B3: SNF8 addI (peptide)
chain: LPALFTDLYSQEITAEEAREALPI
B3: the protein stability index (parent: NP_009172.2) was 3.3.

B4: TRPA1 addI (peptide)
chain: EQRNSRWNTVLRAVKAKTHHLEPI
On to B4, for which the protein stability index (parent: NP_015628.1) was 4.42.

For the origin of these results see the supplement of paper PMC10567573.
